Legend:
Assay in all cases: cell-based or functional assay
[1] = molecular target: T1, BMP-10 (UniProt O95393)
T1 sequence (looked up): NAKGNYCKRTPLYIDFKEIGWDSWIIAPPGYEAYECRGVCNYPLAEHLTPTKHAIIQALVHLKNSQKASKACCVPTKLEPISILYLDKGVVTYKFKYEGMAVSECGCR

[2] = molecular target: T2, BMP-9 (UniProt Q9UK05)
T2 sequence (looked up): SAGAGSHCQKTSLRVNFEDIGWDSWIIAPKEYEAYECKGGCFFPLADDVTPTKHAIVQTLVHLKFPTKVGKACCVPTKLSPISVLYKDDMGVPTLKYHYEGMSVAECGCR

[3] = molecular target: T3, GDF-11 (UniProt O95390)
T3 sequence (looked up): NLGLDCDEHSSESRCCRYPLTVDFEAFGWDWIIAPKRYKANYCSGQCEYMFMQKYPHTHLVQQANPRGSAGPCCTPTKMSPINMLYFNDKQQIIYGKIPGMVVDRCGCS

[4] = molecular target: T4, GDF-8 (UniProt O14793)
T4 sequence (looked up): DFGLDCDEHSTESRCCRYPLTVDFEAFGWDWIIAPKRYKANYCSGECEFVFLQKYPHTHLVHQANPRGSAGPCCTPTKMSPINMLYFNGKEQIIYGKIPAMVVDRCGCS

[5] = molecular target: T5, activin A (UniProt P08476)
T5 sequence (looked up): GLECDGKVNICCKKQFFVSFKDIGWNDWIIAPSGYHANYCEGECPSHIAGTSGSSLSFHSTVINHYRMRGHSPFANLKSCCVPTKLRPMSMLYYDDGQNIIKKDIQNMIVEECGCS

[6] = molecular target: T6, activin B (UniProt P09529)
T6 sequence (looked up): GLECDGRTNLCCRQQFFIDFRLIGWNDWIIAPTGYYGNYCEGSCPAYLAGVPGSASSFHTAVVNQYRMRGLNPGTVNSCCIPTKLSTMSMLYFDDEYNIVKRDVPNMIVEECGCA

| Average IC50, BMP-10 neutralization (HepG2 BMP-reporter) [1] | Average IC50, BMP-9 neutralization (HepG2 BMP-reporter) [2] | Avg IC50, GDF-11 neutralization (HEK293 TGFβ-reporter) [3] | Avg IC50, GDF-8 neutralization (HEK293 TGFβ-reporter) [4] | Avg IC50, activin A neutralization (HEK293 TGFβ-reporter) [5] | Avg IC50, activin B neutralization (HEK293 TGFβ-reporter) [6] | Substance | other results |
| --- | --- | --- | --- | --- | --- | --- | --- |
| 2 nM | 2.7 nM | 0.76 nM | 0.67 nM | 2.3 nM | 1.4 nM | P75 (wild type human ActRIIB-ECD-Fc) (Fc fusion) |  |
| 3.7 nM | 248 nM | 1.6 nM | 3.1 nM | 2.7 nM | 0.95 nM | P444 (wild type human ActRIIA-ECD-Fc) (Fc fusion) | IC50, BMP-9 neutralization (HepG2 BMP-reporter) [2]: > 100 nM; IC50, GDF-8 neutralization (HEK293 TGFβ-reporter) [4]: 3.06 nM |
| 1.9 nM | 1.8 nM | 0.73 nM | 0.65 nM | 0.79 nM | 1.3 nM | P694 (hActRIIB - F58Y, 14aa linker, IgG1 FcDL) (Fc fusion) |  |
|  | 657 nM |  | 2.1 nM | 4.3 nM |  | P698 (hActRIIB - F58K, 3aa linker, IgG1 FcDL) (Fc fusion) | fold lower inhibition potency relative to P444 [2]: 2.6 fold; fold higher inhibition potency relative to P444 [4]: 1.5 fold |
| 0.96 nM | 386 nM | 0.75 nM | 1.1 nM | 0.52 nM | 0.55 nM | P701 (hActRIIB - F58K, 14aa linker, IgG1 FcDL) (Fc fusion) |  |
| 1.4 nM | 110 nM | 0.42 nM | 0.55 nM | 0.62 nM | 0.66 nM | P708 (hActRIIB - F58Q, 14aa linker, IgG1 FcDL) (Fc fusion) |  |
|  | 58 nM |  | 0.29 nM | 0.42 nM |  | P709 (hActRIIB - F58Q, 39aa linker, IgG1 FcDL) (Fc fusion) | fold increase of inhibition potency relative to P1218 [4]: 2.8 fold; fold increase of inhibition potency relative to P1218 [5]: 2.6 fold |
| 2.4 nM | 60 nM | 0.9 nM | 0.83 nM | 0.9 nM | 1.4 nM | P715 (hActRIIB - F58W, 14aa linker, IgG1 FcDL) (Fc fusion) |  |
| > 1000 nM | > 1000 nM | > 1000 nM | > 1000 nM | > 1000 nM | > 1000 nM | P718 (hActRIIB - D57E + F58E, 3aa linker, IgG1 FcDL) (Fc fusion) |  |
| 1.7 nM | > 100 nM | 0.58 nM | 0.61 nM | 0.63 nM | 2.3 nM | P719 (hActRIIB - Q29Y + F58E, 14aa linker, IgG1 FcDL) (Fc fusion) |  |
| 2.3 nM | 914 nM | 0.54 nM | 0.77 nM | 0.97 nM | 2.7 nM | P720 (hActRIIB - D30Q + F58E, 14aa linker, IgG1 FcDL) (Fc fusion) |  |
| 1.2 nM | 0.27 nM | 0.34 nM | 0.31 nM | 0.47 nM | 0.55 nM | P757 (WT hActRIIB, 14aa linker, IgG1 FcDL) (Fc fusion) | % increase of potency relative to P75 [1]: 67%; % increase of potency relative to P75 [2]: 900%; % increase of potency relative to P75 [3]: 124%; % increase of potency relative to P75 [4]: 116%; % increase of potency relative to P75 [5]: 389%; % increase of potency relative to P75 [6]: 155% |
| 1.9 nM | 1.2 nM | 1.4 nM |  | 1.1 nM | 2.4 nM | P758 (hActRIIB - G27D, 14aa linker, IgG1 FcDL) (Fc fusion) |  |
| > 1000 nM | > 1000 nM | 137 nM | 397 nM | 274 nM | 227 nM | P759 (hActRIIB - D57E, 14aa linker, IgG1 FcDL) (Fc fusion) | % increase of potency relative to P120 [3]: 86%; % increase of potency relative to P120 [4]: 60%; % increase of potency relative to P120 [5]: 73%; % increase of potency relative to P120 [6]: 77% |
| 22 nM | 8.7 nM | 8.6 nM | 12 nM | 8.4 nM | 41 nM | P761 (hActRIIB - K31Y, 14aa linker, IgG1 FcDL) (Fc fusion) | % increase of potency relative to P124 [2]: 83%; % decrease of potency relative to P124 [3]: 61%; % decrease of potency relative to P124 [4]: 64%; % decrease of potency relative to P124 [5]: 58%; % decrease of potency relative to P124 [6]: 88% |
| > 1000 nM | > 1000 nM | 27 nM | 66 nM | > 1000 nM | > 1000 nM | P762 (hActRIIB - V75Q, 14aa linker, IgG1 FcDL) (Fc fusion) |  |

From patent US20230287084A1
